Reference: patent US20260250418A1 (BIOCYTOGEN PHARMACEUTICALS BEIJING, published 2026)
Residue numbers refer to the chain shown, from its start.

T1: human HER4 (hHER4, ACRO Biosystems Inc., Cat #: ER4-H5221), recombinant His-tagged (human, UniProt Q15303 26-649)
T1 construct: Bought protein; not shown: His tag
T1 sequence (looked up): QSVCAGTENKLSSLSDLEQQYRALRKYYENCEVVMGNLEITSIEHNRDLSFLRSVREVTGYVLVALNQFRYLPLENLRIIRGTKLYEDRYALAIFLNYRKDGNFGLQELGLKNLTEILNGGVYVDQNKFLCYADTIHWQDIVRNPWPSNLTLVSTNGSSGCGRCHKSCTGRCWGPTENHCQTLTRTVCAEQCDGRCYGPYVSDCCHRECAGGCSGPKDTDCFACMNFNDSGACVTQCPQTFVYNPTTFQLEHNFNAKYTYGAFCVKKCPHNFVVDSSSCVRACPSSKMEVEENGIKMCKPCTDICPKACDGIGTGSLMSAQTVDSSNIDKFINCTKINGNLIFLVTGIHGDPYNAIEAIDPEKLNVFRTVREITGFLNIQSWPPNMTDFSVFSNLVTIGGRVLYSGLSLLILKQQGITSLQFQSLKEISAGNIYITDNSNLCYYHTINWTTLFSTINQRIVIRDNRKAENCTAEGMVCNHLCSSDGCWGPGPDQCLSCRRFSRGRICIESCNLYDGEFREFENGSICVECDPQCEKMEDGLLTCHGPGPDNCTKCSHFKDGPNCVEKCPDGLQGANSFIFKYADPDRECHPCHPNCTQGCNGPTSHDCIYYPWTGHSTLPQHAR

T2: His-tagged dog HER3 protein (dHER3, SEQ ID NO: 45) (dog, UniProt P21860 20-642 (human entry))
T2 construct: not shown: His tag
T2 chain: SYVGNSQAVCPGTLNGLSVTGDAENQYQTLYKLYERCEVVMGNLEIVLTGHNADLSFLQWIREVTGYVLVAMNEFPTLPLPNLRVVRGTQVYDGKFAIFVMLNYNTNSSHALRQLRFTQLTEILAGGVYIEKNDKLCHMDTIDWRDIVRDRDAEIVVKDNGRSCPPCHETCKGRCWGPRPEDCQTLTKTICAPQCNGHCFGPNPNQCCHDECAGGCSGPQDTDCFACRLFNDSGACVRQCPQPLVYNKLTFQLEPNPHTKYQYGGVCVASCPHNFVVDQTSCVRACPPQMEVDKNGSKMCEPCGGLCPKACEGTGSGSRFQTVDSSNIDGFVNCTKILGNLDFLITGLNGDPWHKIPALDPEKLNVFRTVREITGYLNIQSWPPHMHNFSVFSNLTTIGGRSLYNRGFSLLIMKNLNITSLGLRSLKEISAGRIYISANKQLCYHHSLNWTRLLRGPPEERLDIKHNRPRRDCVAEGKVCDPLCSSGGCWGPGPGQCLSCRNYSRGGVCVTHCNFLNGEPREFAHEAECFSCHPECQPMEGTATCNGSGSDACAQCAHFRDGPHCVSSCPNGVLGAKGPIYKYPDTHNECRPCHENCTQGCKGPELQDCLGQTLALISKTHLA

B1: anti-HER3 antibody 3G6 (antibody, V domains shown)
VH: QVQLVQSGPVLVKPTETLTLTCTVSGFSLSNIRMGVSWIRQPPGKALEWLAHIFSNDDKSYSTSLKSRLTISKDTSKSQVVLTMTNVDPVDTATYYCTRMRYSGGPFDYWGQGTLVTVSS
VL: not shown
notes: common light chain
B2: anti-HER3 antibody 3E1 (antibody, V domains shown)
VH: B1 VH with Q1E, V12A, T63P, S67N, N86T, V87M, V90M, R101K
VL: not shown
notes: common light chain
B3: anti-HER3 antibody 1B2 (antibody, V domains shown)
VH: B1 VH with G26T, I32A, T63P, S78T, V87M, T98S, T114S
VL: not shown
notes: common light chain
B4: anti-HER3 antibody 1C5 (antibody, V domains shown)
VH: QVQLVESGGGVVQPGKSLRLSCAASGFTFSRSGMHWVRQAPGKGLEWVALISFDGSNKYYADSVKGRFTISRDNSKNTLNLQMNSLRAEDTAVYYCAKGGFGVVIYDAFDIWGHGTMVTVSS
VL: not shown
notes: common light chain

What follows are binders tested against T1, human HER4 (hHER4, ACRO Biosystems …) (assay: SPR, Ab captured on Protein A).
Protocol: The cross binding activities of anti-HER3 antibodies to HER family proteins were determined by surface plasmon resonance (SPR) using Biacore (Biacore, INC, Piscataway N.J.) 8K biosensor equipped with pre-immobilized Protein A sensor chips.
Purified anti-HER3 antibodies were diluted to 2 μg/mL and then injected into the Biacore 8K biosensor at 10 μL/min for about 50 seconds to achieve a desired protein density (e.g., about 200 response units (RU)). […] The association phase lasted for 180 s and the dissociation phase lasted 400 s followed by a regeneration step with Glycine (pH 2.0, 30 μL/min for 30 seconds). For isotype control (ISO), an antibody targeting an irrelevant target protein was used.

| binding result | Binder |
| --- | --- |
| no binding (tested: 400 nM) | B1 |
| no binding (tested: 400 nM) | B2 |
| no binding (tested: 400 nM) | B3 |
| no binding (tested: 400 nM) | B4 |

Biological target: T2, His-tagged dog HER3 protein (dHER3, SEQ …)
Assay: SPR, Ab captured on Protein A
Protocol: (§1) Purified anti-HER3 antibodies was captured on the Protein A chip (Series S Sensor Chip Protein A) for the detection. […] For ISO control, an antibody targeting an irrelevant target protein was used. The flow rate was 30 μL/min, the binding and dissociation time were set to 180 s and 400 s, respectively. The chip was regenerated after the last injection of each titration with a glycine solution (pH 2.0) at 30 μL/min for 30 seconds.
(§2) As a person of ordinary skill in the art would understand, the same method with appropriate adjustments for parameters (e.g., antibody concentration) was performed for each tested antibody.

| Kd [nM] | koff [s⁻¹] | kon [M⁻¹ s⁻¹] | Binder |
| --- | --- | --- | --- |
| 146 | 0.00809 | 55500 | B1 |
| 50.4 | 0.00288 | 57100 | B2 |
| 61.8 | 0.00223 | 36100 | B3 |
| 33.4 | 0.000418 | 12500 | B4 |

These binders were tested against T3, His-tagged monkey HER3 protein (fasHER3, Sino Biological, Inc., Cat #: 90043-K08H) (monkey) (assay: SPR, Ab captured on Protein A).
T3 construct: Bought protein
Protocol: as §1, §2

| Kd [nM] | koff [s⁻¹] | kon [M⁻¹ s⁻¹] | Binder |
| --- | --- | --- | --- |
| 50.9 | 0.00834 | 164000 | B1 |
| 19.1 | 0.00289 | 152000 | B2 |
| 22.3 | 0.00224 | 100000 | B3 |
| 31.7 | 0.000582 | 18400 | B4 |

The binders below were run against T4, His-tagged human HER3 protein (hHER3, ACRO Biosystems Inc., Cat #: ER3-H5223) (human, UniProt P21860 20-643) (assay: SPR, Ab captured on Protein A).
T4 construct: Bought protein; also called hHER3-His; not shown: His tag
Protocol: as §1, §2

| Kd [nM] | koff [s⁻¹] | kon [M⁻¹ s⁻¹] | Binder |
| --- | --- | --- | --- |
| 34.8 | 0.0091 | 261000 | B1 |
| 11.5 | 0.00319 | 277000 | B2 |
| 13.3 | 0.00239 | 179000 | B3 |
| 30 | 0.000637 | 21200 | B4 |
